Assay results as given in US20240327503A1 (University of Texas, published 2024).

Target: spike protein of SARS-COV-2 WA1 live virus (SARS-CoV-2, UniProt P0DTC2 14-1273)
Assay: cell-based or functional assay

B1: A7V3 (antibody, V domains shown)
VH: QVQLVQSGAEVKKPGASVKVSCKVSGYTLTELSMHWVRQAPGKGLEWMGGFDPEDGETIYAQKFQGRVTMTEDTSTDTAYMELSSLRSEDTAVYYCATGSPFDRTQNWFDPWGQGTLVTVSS
VL: QSVVTQPPSVSAAPGQKVTISCSGSSSNIGNNYVSWYQQLPGTAPKLLIYDNNKRPSGIPDRFSGSKSGTSATLGITGLQTGDEADYYCGTWDSSLSAVVFGGGTKLTVL
- IC50, live virus neutralization of SARS-CoV-2 WA1: 0.95 nM
